Experimental data taken from publication doi:10.1101/2020.12.30.424835 (bioRxiv, 2020).

Tests used:
[1] = target: T1, Ctf3 complex (Ctf3, Mcm16, Mcm22), wild type, recombinant (yeast, UniProt Q12748;Q12262;P47167); assay: fluorescence polarisation
[2] = target: T1, Ctf3 complex (Ctf3, Mcm16, Mcm22), wild …; assay: pull-down

T1 sequence (Q12748 whole entry, chain 1 of 3): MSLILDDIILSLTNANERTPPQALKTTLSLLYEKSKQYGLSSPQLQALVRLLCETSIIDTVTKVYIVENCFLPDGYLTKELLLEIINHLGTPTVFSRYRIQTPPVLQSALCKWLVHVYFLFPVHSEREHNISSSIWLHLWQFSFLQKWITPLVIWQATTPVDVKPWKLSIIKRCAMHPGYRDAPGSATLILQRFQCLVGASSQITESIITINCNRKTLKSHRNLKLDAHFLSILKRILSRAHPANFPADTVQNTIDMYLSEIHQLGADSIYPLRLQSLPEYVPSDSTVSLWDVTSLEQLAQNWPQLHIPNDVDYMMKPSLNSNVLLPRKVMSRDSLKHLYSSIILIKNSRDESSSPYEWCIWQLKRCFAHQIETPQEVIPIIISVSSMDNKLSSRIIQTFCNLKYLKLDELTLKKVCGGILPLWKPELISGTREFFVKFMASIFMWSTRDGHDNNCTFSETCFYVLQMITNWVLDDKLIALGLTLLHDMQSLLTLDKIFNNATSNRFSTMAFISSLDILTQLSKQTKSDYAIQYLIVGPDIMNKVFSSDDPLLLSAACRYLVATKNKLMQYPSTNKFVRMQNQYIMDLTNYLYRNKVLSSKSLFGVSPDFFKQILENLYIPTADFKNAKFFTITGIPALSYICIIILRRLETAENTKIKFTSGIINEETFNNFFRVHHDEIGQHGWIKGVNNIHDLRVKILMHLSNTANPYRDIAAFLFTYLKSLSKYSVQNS
T1 sequence (Q12262 whole entry, chain 2 of 3): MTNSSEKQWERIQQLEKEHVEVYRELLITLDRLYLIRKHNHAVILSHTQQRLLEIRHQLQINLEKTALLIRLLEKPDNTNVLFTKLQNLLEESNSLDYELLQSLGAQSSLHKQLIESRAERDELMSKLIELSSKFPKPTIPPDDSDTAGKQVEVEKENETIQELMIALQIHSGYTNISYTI
T1 sequence (P47167 whole entry, chain 3 of 3): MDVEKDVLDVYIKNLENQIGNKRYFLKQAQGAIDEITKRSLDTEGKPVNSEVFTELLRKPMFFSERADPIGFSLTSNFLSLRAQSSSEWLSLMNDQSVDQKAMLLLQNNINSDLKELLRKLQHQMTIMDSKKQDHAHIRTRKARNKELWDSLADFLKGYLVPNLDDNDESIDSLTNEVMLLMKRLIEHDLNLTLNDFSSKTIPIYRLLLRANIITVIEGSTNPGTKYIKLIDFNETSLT

Binder | Kd [1] [nM] | binding result [2]
DDSDVNLIGSS (fITC-AHA on the N-terminus) [FITC-Ulp2-KIM peptide (fITC-AHA-DDSDVNLIGSS; Ulp2-927-937)] | ~900 | –
DDSDVNLIGSS (domain or fragment) [GST-Ulp2-927-937 (minimal Ulp2-KIM, wild type)] | – | binds

Second part, the binder after the results:

Kd [1] [nM] | binding result [2] | Binder
– | binds | ADSDVNLIGSS (domain or fragment) [GST-Ulp2-KIM 1DA-1 (minimal KIM, D927A)]
– | binds | DDSDVALIGSS (domain or fragment) [GST-Ulp2-927-937 N932A]
